Data published in the supplement of paper PMC9170038.

Test system: MS2 coat protein
Experiment: apparent KD of MS2 coat protein; designed switch direction (-1 OFF switch, 1 ON switch): -1; higher = weaker reporter binding
Method in brief: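 SNAP-549-labelled MS2 coat protein was titrated, doubling from 0.7 or 1.5 nM to 3 µM, over designed RNA switches transcribed on Illumina chips by stalled E. coli RNA polymerase. Runs were done without input, with 200 uM small-molecule ligand, or with an oligonucleotide input. Apparent KD is the per-design median over clusters of curve-fitted normalised fluorescence.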

[1] = input ligand: microRNA oligo, concentration not stated
[2] = Eterna round: R95, input ligand: microRNA oligo, concentration not stated
[3] = Eterna round: R95, input ligand: FMN 200 uM
[4] = Eterna round: R95, input ligand: none

Sequence | apparent KD of MS2 coat protein (input ligand: FMN 200 uM) [nM] | apparent KD of MS2 coat protein (input ligand: none) [nM] | apparent KD of MS2 coat protein [2] [nM] | also measured
UUUAAUUUAAUUAAGAUCACAUGAGGAUCACCCAUGUAAUUAUAGGAUAUCAGCUCGUGUAGAGCUGAGAAGGAUAAUUACAUA [ExNG3/5-A3] (Eterna round: R96, puzzle: Exclusion NG 3) | 81.9 | 72.7 |  | apparent KD of MS2 coat protein [1]: 58.2 nM
AUCGUGUGAGGAUAUCGAUCAUGGAGGUCUAGGUCUAUGCGCGAGAAGGCACAUGAGGAUCACCCAUGUAAUGG [jl-ex4-4.29 ViennaUCT mod] (Eterna round: R97, puzzle: Exclusion 4) | 59.9 | 636 |  | 
GCUGGACAAGGAUAUAUAUGACGUGCUUCGGCACGAAGAUCACAUGAGGAUCACCCAUGUAGAAGGUGUCCAGC [E2/8-C2] (Eterna round: R97, puzzle: Exclusion 2) | 594 | 91.8 |  | 
AAAGAUGGAGGAUAUACAUGAGGAUCACCCAUGUAGAAAAAAAAUUGGGAAAAAGAAAGUAGAAGGCCAAAAAA [Ex 3 May 43] (Eterna round: R96, puzzle: Exclusion 3) | 67.6 | 36.5 |  | apparent KD of MS2 coat protein [1]: 25.6 nM
GUAGAGUCAGGAUAUACGAGAUCGAAAGAUCGGCGGUCUGUACAUGAGGAUCACCCAUGUAGAAGGGACUCUAC [ChP 11-04-2015 #6] (puzzle: Exclusion 2) |  |  | 15.3 | 
AAAAAACAAGGAUAUACGAAGGAUGAUUAUCUUAAUUUUUGACAUGAGGAUCACCCAUGUAGAAGGUGUUAAAA [JR_Exclusion2_Sub008] (puzzle: Exclusion 2) |  |  | 51.5 | apparent KD of MS2 coat protein [3]: 125 nM; apparent KD of MS2 coat protein [4]: 52.9 nM
CGCGAACAUGAGGAUCACCCAUGUGAGGAUAUCAUGCUUCGUAGUAAACUACGAAGUGUGAGAAGGCACAUGCG [Omei Ex1 D5] (Eterna round: R97, puzzle: Exclusion 1) | 297 | 164 |  | 
GAACUCGUGAAGGAUAUCCGUACCAAAGCGGCAGGAGAAGGUCACACAUGAGGAUCACCCAUGUGGUACCUCGU [Xeinbira] (Eterna round: R96, puzzle: Exclusion 6) |  |  |  | apparent KD of MS2 coat protein [1]: 23.6 nM
AGCGCCAUCGUGAGAUGGCGUAUUACAUGAGGAUCACCCAUGUAGGAUAUCGAUUGCUUUGCAGUCGAGAAGGGCAUGUCCUAG [JL ENG3 3.80 Mod H] (Eterna round: R96, puzzle: Exclusion NG 3) |  |  |  | apparent KD of MS2 coat protein [1]: 25 nM
UCUCUGCGAGGAUAUACGUUUGCGCGCUUUCGUUUGCGCGUACAUGAGGAUCACCCAUGUAGAAGGCGCGUUUC [Apr-15 SS2-9] (puzzle: Exclusion 2) |  |  | 12.6 | 
ACUACUAACACGAAAGUGUUAGUACAAUAAGCUUGUGAAACAUGAGGAUCACCCAUGUCCUCAUAAGCUCGUCUUAA [salish99_TOv2_r3_012] (puzzle: Sensor v3, turn-off variant 2) |  |  | 211 | apparent KD of MS2 coat protein [3]: 14.4 nM; apparent KD of MS2 coat protein [4]: 13.8 nM
ACAAGCUUGUAAUGAUAGAACAUGAGGAUCACCCAUGUAAAUGGAAGAACCAAUUGGAUAAGAUAAACUCGUCUUAU [JR_STOV1_Sub003] (Eterna round: R97, puzzle: Sensor, turn-off variant 1) | 114 | 127 |  | 
CAGUACUGAGGAUAUACAUGAGGAUCACCCAUGUGUUCCAGCUAGGAAACUAGCAAAAGUAGAAGGCAGUUCUG [salish99_ex3_r3_099x] (puzzle: Exclusion 3) |  |  | 19.3 | 
GGGCGUGAAGGAUAUACAUGAGGAUCACCCAUGUGGGAGGAGAGUGGUGAGGAGGCUGGUAGAAGGUCAGGAGG [JR_Exclusion3_Sub008] (puzzle: Exclusion 3) |  |  | 27.7 | 
UCAAGUAUGUAGGAUAUCGAUGUCCUCGGACAUCGAGAAGGACGUACAUGAGGAUCACCCAUGUAACUUGCAUG [Exclusion 6 - B - 10:b] (puzzle: Exclusion 6) |  |  | 44.3 | 
AAUCCACAUGAGGAUCACCCAUGUUAGGAUAUCGCGGAGAUCGACUGCGGAAGUUCUGCGAGAAGGAGCGUGAU [Eternabot (L2) Solution 18] (Eterna round: R97, puzzle: Exclusion 1) | 51.6 | 44 |  | 
ACUAGAUGAGGAUAUGCAUGUUUUCGUGUUCUUCUAGAUUAACAUGAGGAUCACCCAUGUAGAAGGCGUCAAUU [Exclusion 2 - 28] (puzzle: Exclusion 2) |  |  | 48 | 
UCCUUGUUGGAGGAUAUGCAUAGCAUCACGCCUGUAGAAGGCCAAACAUGAGGAUCACCCAUGUGCAUGGGAUG [Eternabot (L1) Solution 77] (Eterna round: R97, puzzle: Exclusion 6) | 244 | 216 |  | 

Sequence | apparent KD of MS2 coat protein (input ligand: FMN 200 uM) [nM] | apparent KD of MS2 coat protein (input ligand: none) [nM] | apparent KD of MS2 coat protein [2] [nM] | also measured
AGUAGUUGUUUCCGUUCUUACAUGAGGAUCACCCAUGUUUCUUGUCGUGCUCGCGAUGCUCGUCAGACUACCAGAUG [salish99_TOv1_r3_059] (Eterna round: R96, puzzle: Sensor v3, turn-off variant 1) | 63 | 59.1 |  | apparent KD of MS2 coat protein [1]: 40.6 nM
CAGUACUGAGGAUAUACAUGAGGAUCACCCAUGUGUUCCAGCUAGGAUACUAGCAAAAGUAGAAGGCAGUACUG [salish99_ex3_r3_095x] (puzzle: Exclusion 3) |  |  | 30.4 | apparent KD of MS2 coat protein [3]: 484 nM; apparent KD of MS2 coat protein [4]: 24 nM
GUAGAGUCAGGAUAUACAAGAUCGAAAGAUCAAAGGUCCAUACAUGAGGAUCACCCAUGUAGAAGGGACUCUAC [Eli x2 4.09] (Eterna round: R97, puzzle: Exclusion 2) | 36.4 | 24.5 |  | 
AGUAACUAUCACGAAAGUGAUAGUUACACAAGCAGUGACACAUGAGGAUCACCCAUGUCCUCAUUUGCUCGUCUUAU [Sensor 3 - 29] (puzzle: Sensor v3, turn-off variant 2) |  |  | 637 | apparent KD of MS2 coat protein [3]: 614 nM; apparent KD of MS2 coat protein [4]: 478 nM
UUGUUAUGUGUAGGAUAUGCAUAUUAUUAUUAUGCAGAAGGACAUGAGGAUCACCCAUGUAUAUUAUUAUUAUAUGUUAUAUAU [Title] (Eterna round: R96, puzzle: Exclusion NG 1) | 29.3 | 22.8 |  | apparent KD of MS2 coat protein [1]: 19 nM
GUGCUAUGAGGAUAUACGUUGGUGGGCAUCUGUGUGCUCCUACAUGAGGAUCACCCAUGUAGAAGGCAUGUCAC [LRO-Excl2-20] (Eterna round: R96, puzzle: Exclusion 2) | 22.9 | 14.1 |  | apparent KD of MS2 coat protein [1]: 9.33 nM
UCGGCGUCAGGAUAUCCAAUAUAUGACAUGAGGAUCACCCAUGUUUCCACUCGUACCUCCGGAGAAGGGACGAAUA [Ex5 #91] (Eterna round: R97, puzzle: Exclusion 5) | 30.9 | 35.7 |  | 
AAGUGCGAAGGAUAUACAUGAGGAUCACCCAUGUUCACCAAAACACAGGUCUCAGACUGUAGAAGGUCGCACAG [Eternabot (Original) Solution 45] (Eterna round: R97, puzzle: Exclusion 3) | 605 | 59.8 |  | 
GCGGAUCUAGGAUAUACAUGAGGAUCACCCAUGUAAACUCUCUUGGAUGACUACUAUUGUAGAAGGAGAUAAGC [Erlabeedle] (puzzle: Exclusion 3) |  |  | 24.4 | 
GGUCUGCGAGGAUAUACAUGAGGAUCACCCAUGUGAGUGAUACUAGUGAGGUCGAUUGGUAGAAGGCGCGGACG [JL-ex3-2.05 salish99 mod] (puzzle: Exclusion 3) |  |  | 445 | apparent KD of MS2 coat protein [3]: 37 nM; apparent KD of MS2 coat protein [4]: 839 nM
CAGAGCUUUUACUCGUCUUACAUGAGGAUCACCCAUGUCUCCUAGUGGGUAAAAUAUUAAGAAGAAAUUCUUAAUAA [jun14#1] (Eterna round: R97, puzzle: Sensor, turn-off variant 1) | 125 | 145 |  | 
UCAGGCGAUGUCAGGAUAUCGGCUGCCCAAUUGGCUGAGAAGGGACAUGAGGAUCACCCAUGUUAGAUCCAGCC [BmEX4 A.25] (Eterna round: R97, puzzle: Brourd's mod of Exclusion 4) | 30.2 | 16.9 |  | 
GGUGGUAUGUCAGGAUAUACAGCCUAAAUGGAAGUAGAAGGGACACAUGAGGGUCACCCAUGUGACAUGAGGAUCACCCAUGUA [Hi3 10-05-2015] (Eterna round: R96, puzzle: Exclusion NG 1) | 64 | 60.7 |  | apparent KD of MS2 coat protein [1]: 41.1 nM
GUGACACAUGAGGAUCACCCAUGUGAGGAUAUAUCCGACUAUGAAAGGGUGUAGCAGGAUAGAAGGUACUGGCG [Eternabot (L2) Solution 54] (Eterna round: R97, puzzle: Exclusion 1) | 83.1 | 104 |  | 
ACUUAUAGAGGAUAUACAGAAUAUUACAUGAGGAUCACCCAUGUUCUUCAAUGUAUAUAAGUAGAAGGCUAAGGUU [Mat - Exclusion 5 - JL Mod - D5] (Eterna round: R97, puzzle: Exclusion 5) | 282 | 33.4 |  | 
AUUUACAAGCUAAGAUCCUACAUGAGGAUCACCCAUGUGGUCCGGUGACGUGAGUCACCGGACUUAGCUCGUCUUGC [salish99_S_TOV1_R5_084] (Eterna round: R97, puzzle: Sensor, turn-off variant 1) | 37.2 | 38.1 |  | 
GAAAAGGUAGGAUAUACGAAAAAAUAGGGUAGAAAAAAAACACAUGAGGAUCACCCAUGUAGAAGGACCAAAAG [salish99_ex2_r3_081] (puzzle: Exclusion 2) |  |  | 33.7 | apparent KD of MS2 coat protein [3]: 47.6 nM; apparent KD of MS2 coat protein [4]: 27.5 nM
